B1: 48G5 (antibody, V domains shown)
VH: QVQLVQSGAEVKRPGASVKVSCKASGYTFTSYAIHWVRQAPGQRLEWMGWINPGNGNAKYSQRFQGRVIISRDTSATTSYMELSSLTSEDTAVYSCARDRGFDLLTGHYLGLDPWGQGTLVTVSS
VL: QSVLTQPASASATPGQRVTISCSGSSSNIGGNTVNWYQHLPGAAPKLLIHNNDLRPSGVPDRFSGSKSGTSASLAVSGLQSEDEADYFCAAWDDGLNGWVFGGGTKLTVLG
notes: also called 48G5C4; IGH 526
B2: 17H1 (antibody, V domains shown)
VH: QVQFVQSGAEVKKPGASVKVSCKASGYTFTRHAIHWVRQAPGQRLEWMGWINPGNGNAKYSQKFQGRVTITRDTPASTVYMELSSLRSEDMGVYYCARDGGYSHDYSYFYGLDVWGPGTTVIVSS
VL: QSVLTQPPSASGTPGQRVTISCSGSSSNIGGNFVDWYQQFPGTAPKLLIYTNDQRPSGVPARFSGSKSGTSASLAISGLRSEDEADYYCAAWDDIVNGWVFGGGTKLTVRG
notes: also called 17H1D9; IGH 520

Legend:
[1] = biological target: HCV E1 envelope glycoprotein of genotype 1a strain H77 on retroviral pseudoparticles (HCVpp) (Hepatitis C virus genotype 1a strain H77, UniProt P27958 1-3011); assay: cell-based or functional assay
[2] = biological target: HCV E1 envelope glycoprotein of genotype 1b (HCCl 66) on retroviral pseudoparticles (Hepatitis C virus genotype 1b); assay: cell-based or functional assay
[3] = biological target: HCV E1 envelope glycoprotein of genotype 2a (pJ6CF) on retroviral pseudoparticles (Hepatitis C virus genotype 2a, UniProt P26660 1-3033); assay: cell-based or functional assay
[4] = biological target: HCV E1 envelope glycoprotein of genotype 3a (strain S52) on retroviral pseudoparticles (Hepatitis C virus genotype 3a); assay: cell-based or functional assay
[5] = biological target: HCV E1 envelope glycoprotein of genotype 4a (strain ED43) on retroviral pseudoparticles (Hepatitis C virus genotype 4a, UniProt O39929 1-3008); assay: cell-based or functional assay
[6] = biological target: HCV E1 envelope glycoprotein of genotype 5a (strain SA13) on retroviral pseudoparticles (Hepatitis C virus genotype 5a, UniProt O91936 1-3014); assay: cell-based or functional assay
[7] = biological target: HCV E1 envelope glycoprotein of genotype 6a (strain HK-6a) on retroviral pseudoparticles (Hepatitis C virus genotype 6a); assay: cell-based or functional assay
IGP 2137 = biological target: T1, IGP 2137 (Hepatitis C virus (HCV)); assay: ELISA, […], antibody at 1.25 µg/mL
T1 construct: also called RMAWDM

IGP 2138 = biological target: T2, IGP 2138 (Hepatitis C virus (HCV)); assay: ELISA, […], antibody at 1.25 µg/mL
T2 construct: also called WDMMMNW

IGP 2241 = biological target: T3, IGP 2241 (Hepatitis C virus (HCV)); assay: ELISA, […], antibody at 1.25 µg/mL
T3 construct: E1 peptide

IGP 2254 = IGP 2254 (Hepatitis C virus (HCV), N-terminal Biotin; C-terminal -CONH2); assay: BIAcore, antibody immobilized, peptide IGP 2254 in solution

HCV E1 envelope glycoprotein of genotype 5a (strain SA13) on retroviral pseudoparticles, sequence (O91936 whole entry): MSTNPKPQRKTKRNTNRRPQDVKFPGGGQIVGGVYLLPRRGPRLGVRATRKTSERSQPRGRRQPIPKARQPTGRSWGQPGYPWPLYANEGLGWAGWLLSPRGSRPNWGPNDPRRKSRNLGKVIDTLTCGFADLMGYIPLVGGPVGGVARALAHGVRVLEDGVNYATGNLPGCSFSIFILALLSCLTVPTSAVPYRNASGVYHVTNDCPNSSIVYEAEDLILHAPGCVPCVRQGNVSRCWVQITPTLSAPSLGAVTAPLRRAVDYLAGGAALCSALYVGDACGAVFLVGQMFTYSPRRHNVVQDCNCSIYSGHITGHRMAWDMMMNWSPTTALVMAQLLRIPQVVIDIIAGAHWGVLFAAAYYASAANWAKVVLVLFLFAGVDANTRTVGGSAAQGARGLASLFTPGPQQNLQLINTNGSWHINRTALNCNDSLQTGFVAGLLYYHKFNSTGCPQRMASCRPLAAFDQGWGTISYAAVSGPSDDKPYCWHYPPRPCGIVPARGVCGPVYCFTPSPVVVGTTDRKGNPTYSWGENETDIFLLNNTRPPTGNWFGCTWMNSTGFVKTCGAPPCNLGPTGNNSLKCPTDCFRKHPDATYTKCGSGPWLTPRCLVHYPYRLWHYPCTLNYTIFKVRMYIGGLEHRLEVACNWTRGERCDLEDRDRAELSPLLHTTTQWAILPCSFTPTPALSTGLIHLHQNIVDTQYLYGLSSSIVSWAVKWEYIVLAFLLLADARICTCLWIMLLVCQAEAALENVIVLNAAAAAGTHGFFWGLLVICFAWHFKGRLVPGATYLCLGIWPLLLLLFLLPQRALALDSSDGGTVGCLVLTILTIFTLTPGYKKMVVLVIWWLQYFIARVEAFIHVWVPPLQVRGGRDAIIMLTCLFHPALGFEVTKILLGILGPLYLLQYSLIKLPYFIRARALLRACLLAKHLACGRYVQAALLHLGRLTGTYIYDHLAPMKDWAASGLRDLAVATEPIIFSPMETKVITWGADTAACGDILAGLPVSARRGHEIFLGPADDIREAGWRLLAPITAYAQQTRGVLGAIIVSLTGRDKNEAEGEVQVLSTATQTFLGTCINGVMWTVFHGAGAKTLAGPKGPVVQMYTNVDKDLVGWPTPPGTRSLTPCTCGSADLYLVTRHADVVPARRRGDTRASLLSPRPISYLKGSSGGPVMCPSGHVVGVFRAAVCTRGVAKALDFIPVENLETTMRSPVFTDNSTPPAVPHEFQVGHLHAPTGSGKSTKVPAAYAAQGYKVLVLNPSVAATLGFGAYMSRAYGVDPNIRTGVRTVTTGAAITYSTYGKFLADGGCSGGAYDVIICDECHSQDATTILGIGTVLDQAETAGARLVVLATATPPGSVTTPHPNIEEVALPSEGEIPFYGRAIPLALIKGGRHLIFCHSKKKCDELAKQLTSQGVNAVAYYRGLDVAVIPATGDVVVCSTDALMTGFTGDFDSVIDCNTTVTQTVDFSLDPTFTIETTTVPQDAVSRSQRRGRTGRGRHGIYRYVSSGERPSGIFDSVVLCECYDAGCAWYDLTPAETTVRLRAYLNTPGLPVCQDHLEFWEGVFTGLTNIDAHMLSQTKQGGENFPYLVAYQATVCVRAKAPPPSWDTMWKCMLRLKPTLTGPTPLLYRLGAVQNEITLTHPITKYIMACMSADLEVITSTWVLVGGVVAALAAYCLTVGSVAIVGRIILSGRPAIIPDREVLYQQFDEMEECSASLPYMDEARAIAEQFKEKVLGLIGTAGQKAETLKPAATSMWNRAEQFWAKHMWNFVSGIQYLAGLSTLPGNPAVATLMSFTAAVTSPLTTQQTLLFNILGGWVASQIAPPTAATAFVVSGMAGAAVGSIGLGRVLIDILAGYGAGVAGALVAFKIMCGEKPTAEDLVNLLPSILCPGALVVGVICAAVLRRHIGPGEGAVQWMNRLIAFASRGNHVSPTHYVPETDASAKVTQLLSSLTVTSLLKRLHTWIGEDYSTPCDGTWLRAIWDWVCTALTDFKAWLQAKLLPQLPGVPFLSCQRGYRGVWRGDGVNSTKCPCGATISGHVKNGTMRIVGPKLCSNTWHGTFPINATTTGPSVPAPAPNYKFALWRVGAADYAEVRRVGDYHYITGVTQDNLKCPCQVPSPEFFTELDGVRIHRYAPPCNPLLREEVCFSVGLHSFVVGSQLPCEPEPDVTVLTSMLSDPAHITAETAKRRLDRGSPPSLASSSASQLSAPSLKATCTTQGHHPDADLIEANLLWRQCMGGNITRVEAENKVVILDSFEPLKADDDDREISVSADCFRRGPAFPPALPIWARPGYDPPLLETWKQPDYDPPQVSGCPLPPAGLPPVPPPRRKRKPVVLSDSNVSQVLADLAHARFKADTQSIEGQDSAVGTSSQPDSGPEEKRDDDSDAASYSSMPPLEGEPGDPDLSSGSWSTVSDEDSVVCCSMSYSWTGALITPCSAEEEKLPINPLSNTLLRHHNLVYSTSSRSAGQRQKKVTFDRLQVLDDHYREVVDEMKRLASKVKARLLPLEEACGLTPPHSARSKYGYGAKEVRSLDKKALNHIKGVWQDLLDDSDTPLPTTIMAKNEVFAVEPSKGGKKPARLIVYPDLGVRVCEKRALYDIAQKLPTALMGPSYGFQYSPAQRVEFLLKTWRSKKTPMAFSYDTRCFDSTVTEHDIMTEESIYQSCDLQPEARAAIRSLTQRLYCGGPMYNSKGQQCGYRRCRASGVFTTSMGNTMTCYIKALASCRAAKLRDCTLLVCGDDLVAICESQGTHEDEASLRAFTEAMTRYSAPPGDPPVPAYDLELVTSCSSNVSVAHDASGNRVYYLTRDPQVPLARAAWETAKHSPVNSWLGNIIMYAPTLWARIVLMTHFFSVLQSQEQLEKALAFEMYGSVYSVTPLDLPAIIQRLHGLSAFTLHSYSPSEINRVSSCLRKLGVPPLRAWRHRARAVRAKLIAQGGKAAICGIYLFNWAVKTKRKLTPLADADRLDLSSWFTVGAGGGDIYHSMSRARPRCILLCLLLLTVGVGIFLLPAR

Binder | lowest concentration of antibody in µg/ml exhibiting at least 50% neutralization (HCVpp) [1] [µg/mL] | lowest concentration of antibody in µg/ml exhibiting at least 50% neutralization (HCVpp) [2] [µg/mL] | lowest concentration of antibody in µg/ml exhibiting at least 50% neutralization (HCVpp) [3] [µg/mL] | lowest concentration of antibody in µg/ml exhibiting at least 50% neutralization (HCVpp) [4] [µg/mL] | lowest concentration of antibody in µg/ml exhibiting at least 50% neutralization (HCVpp) [5] [µg/mL] | lowest concentration of antibody in µg/ml exhibiting at least 50% neutralization (HCVpp) [6] [µg/mL] | lowest concentration of antibody in µg/ml exhibiting at least 50% neutralization (HCVpp) [7] [µg/mL] | binding result (IGP 2137) | binding result (IGP 2138) | binding result (IGP 2241) | Kd (IGP 2254) [nM] | koff (IGP 2254) [s⁻¹] | kon (IGP 2254) [M⁻¹ s⁻¹]
B1 | < 1 | 12.5 | 50 | > 50 | 6.2 | 1.6 | 3.1 | no binding (tested: 1.25 µg/ml) | no binding (tested: 1.25 µg/ml) | no binding (tested: 1.25 µg/ml) | 0.2 | 0.000305 | 1.54e+06
B2 | 3.1 | 6.2 | 50 | < 50 | < 1 | < 1 | 6.2 | – | – | – | 0.15 | 0.000357 | 2.35e+06

— patent US20090311248A1 (published 2009)
